Experimental data: PMC10881386

Experiments:
[1] = molecular target: FG domain comprising 52 GLFG 12mer repeat units; assay: FG phase partitioning (confocal microscopy); FG domain phase-separated by dilution from guanidinium hydrochloride, then fluorescent probe added; 50 mM Tris/HCl pH 7.5, 250 mM NaCl, 1 mM IP6; scanned after 1 h; partition coefficient = signal in the FG particle : outside
[2] = molecular target: disulfide-stabilized HIV-1 CA hexamer (CA-P1A, A14C, E45C, W184A, M185A) (HIV-1); assay: SEC; Superdex 200 increase, 20 mM Tris/HCl pH 8.0, 150 mM NaCl, 100 µM IP6; peak fraction seen by negative-stain EM; disulfide-stabilised hexamer

## 40 nm capsid spheres (CA-P1A/N21C/A22C) labelled with CA–EGFP (complex)
[1]
  partition coefficient (in:out): > 300

## capsid-like particles (CLPs) assembled from wild-type CA, with encapsulated mCherry (complex)
[1]
  partition coefficient (in:out): > 750

## disulfide-stabilized HIV-1 CA hexamer (CA-P1A, A14C, E45C, W184A, M185A) (complex)
[2]
  stoichiometry N: 6

## mCherry
[1]
  partition coefficient (in:out): < 0.05
